# Laboratory results published in US20130101582A1, “Tiki1 and Tiki2, Wnt Inhibitors” (CHILDREN'S MEDICAL CENTER CORPORATION, priority 2010, published 2013).
# T1: mFz8CRD-IgG (Mus musculus, UniProt Q61091)
# T1 construct: using the extracellular domain of mouse Fz8 (mFz8CRD-IgG) or LRP6 (LRP6N-IgG)
# T1 sequence (Q61091 30-151 limits assumed): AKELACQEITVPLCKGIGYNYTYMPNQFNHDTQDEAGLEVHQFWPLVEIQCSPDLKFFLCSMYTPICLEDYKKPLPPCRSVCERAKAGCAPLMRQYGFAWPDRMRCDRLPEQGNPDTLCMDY
# T2: LRP6N-IgG (Homo sapiens, UniProt O75581)
# T2 construct: using the extracellular domain of mouse Fz8 (mFz8CRD-IgG) or LRP6 (LRP6N-IgG)
# T2 sequence (O75581 20-1370 limits assumed): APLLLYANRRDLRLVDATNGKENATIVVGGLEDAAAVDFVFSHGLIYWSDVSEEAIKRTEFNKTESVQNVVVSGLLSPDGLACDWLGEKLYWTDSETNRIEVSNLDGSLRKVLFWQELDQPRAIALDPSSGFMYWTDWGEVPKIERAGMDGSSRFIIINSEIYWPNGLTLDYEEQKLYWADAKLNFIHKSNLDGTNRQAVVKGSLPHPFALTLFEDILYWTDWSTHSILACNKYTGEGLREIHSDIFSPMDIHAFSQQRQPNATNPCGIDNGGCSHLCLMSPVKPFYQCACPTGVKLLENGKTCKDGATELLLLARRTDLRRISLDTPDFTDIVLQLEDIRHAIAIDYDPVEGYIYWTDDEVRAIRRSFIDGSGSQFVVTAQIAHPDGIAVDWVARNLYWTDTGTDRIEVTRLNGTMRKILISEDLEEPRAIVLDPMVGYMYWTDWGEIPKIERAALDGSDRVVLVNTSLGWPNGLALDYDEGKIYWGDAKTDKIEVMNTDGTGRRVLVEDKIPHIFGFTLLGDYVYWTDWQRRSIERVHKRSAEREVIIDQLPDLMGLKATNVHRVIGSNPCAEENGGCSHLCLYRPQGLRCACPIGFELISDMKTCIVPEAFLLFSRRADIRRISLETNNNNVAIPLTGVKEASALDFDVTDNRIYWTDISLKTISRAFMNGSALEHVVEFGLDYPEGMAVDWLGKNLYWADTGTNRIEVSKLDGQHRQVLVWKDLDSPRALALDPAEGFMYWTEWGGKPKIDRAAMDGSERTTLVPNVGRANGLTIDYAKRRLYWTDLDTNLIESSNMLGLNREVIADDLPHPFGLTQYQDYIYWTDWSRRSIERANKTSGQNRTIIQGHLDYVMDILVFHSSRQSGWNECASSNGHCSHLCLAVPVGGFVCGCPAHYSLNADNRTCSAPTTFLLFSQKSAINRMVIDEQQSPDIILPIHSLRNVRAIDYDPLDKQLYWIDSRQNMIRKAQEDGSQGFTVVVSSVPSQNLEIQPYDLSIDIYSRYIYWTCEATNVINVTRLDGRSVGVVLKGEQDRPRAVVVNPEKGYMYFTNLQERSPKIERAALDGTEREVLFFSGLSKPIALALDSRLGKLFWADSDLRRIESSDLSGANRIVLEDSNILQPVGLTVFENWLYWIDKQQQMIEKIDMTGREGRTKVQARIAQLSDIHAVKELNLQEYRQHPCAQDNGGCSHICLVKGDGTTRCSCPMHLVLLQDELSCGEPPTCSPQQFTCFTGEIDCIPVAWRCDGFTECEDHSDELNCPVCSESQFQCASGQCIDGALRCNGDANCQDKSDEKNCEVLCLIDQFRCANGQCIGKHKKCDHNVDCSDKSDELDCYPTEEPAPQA
# Experiments:
# [1] = tested on: beta-catenin stabilization; assay: Beta-catenin stabilization in Wnt3a-expressing L cells, Western blotting; format: cell-based, mouse; conditions: Wnt3a-producing L cells stably expressing human Tiki2
# Method: Wnt3a CM rescued Tiki2 inhibition of beta-catenin stabilization in Wnt3a-expressing cells. Indicated cell lines were treated with control or Wnt3a CM for 2 hrs and whole cell lysates (WCL) were subjected for Western blotting. Beta-tubulin was a loading control.
# (§1) As Tiki proteins are related to bacterial proteins of unknown function, it was speculated that Tiki may antagonize Wnt signaling through a novel mechanism, possibly in an enzymatic fashion. Human Tiki2 was stably expressed in L cells or Wnt3a-expressing L cells (human Tiki1 was poorly expressed in L cells). […] In fact Wnt3a CM restored beta-catenin stabilization in Wnt3a-expressing cells that also expressed Tiki2 (FIG. 5A).
# mFz8CRD-IgG = molecular target: T1, mFz8CRD-IgG; assay: Binding of Wnt3a CM to mFz8CRD-IgG, protein G precipitation
# Method: (§2) Wnt3a CM was incubated with LRP6N-IgG or mFz8CRD-IgG. The protein complexes were precipitated by protein G agarose and subjected for Western blotting.
# as §1
# LRP6N-IgG = molecular target: T2, LRP6N-IgG; assay: Binding of Wnt3a CM to LRP6N-IgG, protein G precipitation
# Method: as §2, §1
# TOPFLASH reporter = TOPFLASH reporter activation by Wnt3a produced from Tiki2-expressing L cells; format: cell-based; conditions: Wnt3a CM
# Source text: as §1
# Wnt3a = Wnt3a (Mus musculus, UniProt P27467); assay: Triton X-114 phase separation of Wnt3a secreted from Tiki-expressing cells; format: cell-based; design: expressed in transfected cells; host or cells: mouse L cells (Wnt3a-expressing); HEK293T
# Wnt3a, sequence (P27467 19-352): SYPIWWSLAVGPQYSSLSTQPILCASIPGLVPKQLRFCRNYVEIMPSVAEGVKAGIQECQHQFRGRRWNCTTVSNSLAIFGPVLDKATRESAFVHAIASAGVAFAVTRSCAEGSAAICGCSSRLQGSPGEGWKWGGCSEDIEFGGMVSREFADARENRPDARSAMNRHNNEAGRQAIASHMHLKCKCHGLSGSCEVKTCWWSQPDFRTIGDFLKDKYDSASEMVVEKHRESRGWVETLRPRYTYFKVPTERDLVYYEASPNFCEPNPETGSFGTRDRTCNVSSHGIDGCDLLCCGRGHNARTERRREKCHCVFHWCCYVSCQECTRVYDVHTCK
# Source text: FIG. 6A is a gel showing that Tiki inactivates Wnt3a by regulating Wnt3a acylation/palmitoylation. A Triton X-114 phase separation experiment is shown in 6A. […] T, total; Aq, aqueous; De, detergent.
# FIG. 6B is a gel showing that Wnt3a secreted from Tiki1 or Tiki2 but not GFP-expressing HEK293T cells partitioned in the aqueous phase.
# C77 palmitoylation is required for Wnt3a activity (Willert, K. et al., Nature 423, 448-452 (2003)) and binding to both Fz and LRP6 (Komekado, H. et al., Genes Cells 12, 521-534 (2007); Cong, F. et al., Development 131, 5103-5115 (2004)), while S209 acylation is critical for Wnt3a secretion (Takada, R. et al., Dev Cell 11, 791-801 (2006)). Thus Tiki proteins may affect C77 palmitoylation but not S209 acylation. The palmitate adduct at C77 is the primary contributor to Wnt3a hydrophobicity because palmitoylated Wnt3a is partitioned in the Triton X-114 detergent phase whereas Wnt3a lacking the palmitate is soluble in the aqueous phase (Willert, K. et al., Nature 423, 448-452 (2003); Komekado, H. et al., Genes Cells 12, 521-534 (2007)).
molecule,measurement,setting,value
"Tiki2: Human Tiki2 (XP 371250/LOC388630) (SEQ ID NO:2), expressed in L or HEK293T cells (protein, listed as Homo sapiens) MHAALAGPLLAALLATARARPQPPDGGQCRPPGSQRDLNSFLWTIRRDPPAYLFGTIHVPYTRVWDFIPDNSKAAFQASTRVYFELDLTDPYTISALASCQLLPHGENLQDVLPHELYWRLKRHLDYVKLMMPSWMTPAQRGKGLYADYLFNAIAGNWERKRPVWVMLMVNSLTERDVRFRGVPVLDLYLAQQAEKMKKTTGAVEQVEEQCHPLNNGLNFSQVLFALNQTLLQQESVRAGSLQASYTTEDLIKHYNCGDLSAVIFNHDTSQLPNFINTTLPPHEQVTAQEIDSYFRQELIYKRNERMGKRVMALLRENEDKICFFAFGAGHFLGNNTVIDILRQAGLEVDHTPAGQAIHSPAPQSPAPSPEGTSTSPAPVTPAAAVPEAPSVTPTAPPEDEDPALSPHLLLPDSLSQLEEFGRQRKWHKRQSTHQRPRQFNDLWVRIEDSTTASPPPLPLQPTHSSGTAKPPFQLSDQLQQQDPPGPASSSAPTLGLLPAIATTIAVCFLLHSLGPS",Beta-catenin stabilization,[1],inhibited beta-catenin stabilization
same,Binding of Wnt3a secreted from Tiki2-expressing cells to Fz (mFz8CRD-IgG),mFz8CRD-IgG,failed to bind to either Fz or LRP6
same,Binding of Wnt3a secreted from Tiki2-expressing cells to LRP6 (LRP6N-IgG),LRP6N-IgG,failed to bind to either Fz or LRP6
same,Activity of Wnt3a produced from Tiki2-expressing L cells in activation of TOPFLASH reporter expression,TOPFLASH reporter,minimal activity
same,Partitioning of secreted Wnt3a in Triton X-114 phase separation,Wnt3a; HEK293T cells,partitioned exclusively in the aqueous phase
same,Partitioning of secreted Wnt3a in Triton X-114 phase separation,Wnt3a; L cells,partitioned exclusively in the aqueous phase
